Target: native Neospora caninum cyclophilin (NcCyP) in whole-cell tachyzoite lysate (NcAg) (Neospora caninum) (UniProt P84343)
Assay: cell-based or functional assay

Sequence of UniProt P84343 (P84343 18-178 limits assumed): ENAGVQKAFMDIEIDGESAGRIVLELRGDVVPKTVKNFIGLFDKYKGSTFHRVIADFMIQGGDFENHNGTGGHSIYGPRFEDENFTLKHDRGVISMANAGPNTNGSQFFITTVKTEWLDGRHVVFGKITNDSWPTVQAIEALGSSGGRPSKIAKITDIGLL

NcAg-stimulated IFNγ production in mouse splenocytes: 10 to 100 nM
Substance: cyclosporin A (CsA) (peptide)
